Reference: patent publication US5753621A, “Pulmonary surfactant protein fragments” (Abbott Laboratories, priority 1995, dated 1998)

Legend:
Type in all cases: physicochemical
[1] = Relative surface activity by dilution studies on the modified Wilhelmy Balance-Langmuir Trough; settings: 675 ug phospholipid
Experimental: For the purpose of this comparison "surface activity" is defined as follows: For any given peptide concentration, the admixture is required to result in a minimum dynamic surface tension of less than 10 dynes/cm for each of seven consecutive expansion/compression cycles.
Initially each of the admixtures was formulated so as to contain an equal number of moles of the individual peptide as is contained in a 0.5 mg/mL admixture of SP-B(53-78). […] Thereafter, each of these admixtures was diluted with the standard lipid mixture as described in Example 4, so as to provide doubling dilutions of the equimolar "parent" stock peptide admixture. The lipid concentration in all cases was maintained at 25 mg/ml.
Assessment of relative surface activity was conducted on the modified Wilhemy-Langmuir Surface Balance. For these studies a standard volume of 27 ul of each admixture, corresponding to a total phospholipid mass of 675 ug, was applied to the Langmuir Trough with maximum dimensions of 445 sq. cm.

[2] = Dynamic surface tension versus compressed surface area, modified Wilhelmy Surface Balance (Langmuir Trough); settings: peptide 0.5 mg/ml (~2% of solids) in DPPC:PG:PA 68:22:9; 675 ug phospholipid on 445 sq. cm trough; recorded during seven complete cycles
Experimental: (§1) Prior to testing for surface activity, the synthetic fragments were admixed with lipids. A lipid mixture consisting of 68% 1,2-dipalmitoyl-sn-phosphatidylcholine (DPPC), 22% egg phosphatidylglycerol (PG) and 9% palmitic acid on a weight basis was prepared by dissolving the lipids in chloroform:methanol (2:1). The required amount of peptide fragment was dissolved in methanol and heated to 60° C. for 10 minutes. The peptide solution was then added to the lipid mixture prewarmed to 45° C. for ten minutes. The samples were mixed at 45° C. by gentle swirling at 100 revolutions per minute on a Buchi rotary evaporator. The organic solvents were then evaporated at 45° C. by increasing the vacuum in 100 torr increments every five minutes until most of the solvent was removed. Final vacuum was between 150-200 torr. Following evaporation, the solids were then suspended in 10% ethanol prewarmed to 45° C. and which was prepared using deionized distilled water. The suspension was gently mixed with vortexing and placed back under vacuum at 600 torr with a repeat of the vacuum ramping process. Final vacuum for the ethanol removal was 50 torr. Following complete removal of ethanol the suspension was diluted with aqueous 0.15M NaCl at 45° C. to yield an admixture with a phospholipid concentration of 25 mg/ml. The peptide/lipid admixtures were formed at final peptide concentrations of 0.5 mg/ml (equivalent to 2% of solids concentration).
The dynamic surface tension lowering properties of the peptide/lipid admixtures were studied using a modified Wilhelmy Surface Balance (Langmuir Trough). The instrument consists of an all Teflon trough and movable Teflon ribbon (dam) barrier system which completely contains and defines a variable surface area. Surface area was varied through the use of a constant rate reversible 3-phase motor to drive the Teflon barrier. A Cahn 2000 electrobalance (Cahn Instruments, Cerittos, Calif.) with a sandblasted 1 cm platinum plate and stainless steel hangdown wire was employed to determine the surface tension at the liquid-air interface. The entire apparatus was situated in a thermostated incubator set at 45° C. Surface area-surface tension measurements were made by adding 950 ml of 0.15M NaCl to the trough. Subphase temperature was controlled during the measurements at 36°-38° C.
For each experiment 27 ul of peptide/lipid admixture was applied in a random array of 13 droplets to the surface of the temperature controlled subphase and allowed to spread spontaneously for 3 minutes. (The 27 ul application corresponds to 675 ug of phospholipid). The trough surface area was then cycled from a maximum (445 sq. cm) to a minimum (178 sq. cm) surface area and back to maximum at a cycling rate of 3 cycles/min (compression ratio 2.5:1). The dynamic surface tension versus surface area was recorded for 7 complete compression-expansion cycles for each application.

[3] = Adsorption capacity, modified Wilhelmy surface balance; settings: measured after three (3) minutes spreading time; peptide 0.5 mg/ml (~2% of solids)
Experimental: as §1
A procedure similar to that described by Notter, et al., Pediatric Res. 16, 515-519 (1982) was employed to determine the absorption rate in the absence of diffusion resistance. The modified Wilhelmy surface balance as described above was used. However, instead of using a Langmuir trough, a round Teflon dish (5.1 cm diameter) was employed. The subphase, 70 ml of 0.15M NaCl, was allowed to equilibrate to 37° C. in the incubator and was continuously stirred with a Teflon coated magnetic stirrer. An aliquot of the peptide/lipid fragment admixture containing 5 mg of total phospholipid was dispersed in 10 ml of 0.15M NaCl by vortexing for 10 seconds. This dispersion was then added to the saline subphase. Surface tension lowering was monitored using a strip chart recorder connected to the electro-balance output.

[4] = Pulsating Bubble Surfactometer (PBS) surface tension; settings: after 5 minutes pulsation (100 cycles); 1 mg/ml phospholipid, peptide 2% of phospholipids; 0.15M NaCl; 37° C.; 20 cycles/minute; SD in parenthesis
Experimental: as §1
The PBS equipment (Electronetics, Buffalo, N.Y.) used was essentially equivalent to that described in detail by G. Enhorning, J. Appld. Physiol. 43, 198-203, (1977). Recordings were made of the pressure gradient across the wall of a small air bubble, communicating with ambient air by means of a narrow chimney stack, but otherwise entirely surrounded by a 40 ul volume of the peptide/lipid admixture. The admixture concentration employed for these studies was 1 mg/ml total phospholipid (0.02 mg/ml total peptide) and the diluent was 0.15M NaCl.
Immediately prior to loading the sample chamber, the diluted samples were sonicated for 15 seconds to remove any gas nuclei.
The pressure drop across the air-water interface was measured during pulsation by a pressure transducer, and the corresponding surface tension was determined at minimum and maximum bubble size through the application of Young's law and the Laplace equation. Measurements were all made at 37° C. and the bubble pulsed at 20 cycles/minute to render respectively a maximum (1.1 mm) and a minimum (0.8 mm) bubble diameter. (This compression/expansion corresponds to a 50% change in the surface area of the air-water interface).

B1: SP-B(1-78): complete SP-B surfactant protein having 78 amino acid residues, used as control (protein, UniProt P07988 201-279, looked up)
Pulmonary …: FPIPLPYCWLCRALIKRIQAMIPKGALAVAVAQVCRVVPLVAGGICQCLAERYSVILLDTLLGRMLPQLVCRLVLRCSM
modifications: Pulmonary surfactant-associated protein B
notes: complete SP-B surfactant protein having 78 amino acid residues, used as control
Mean Minimum Surface Tension, relative peptide concentration 1/2 ([1]; 1/2 dilution of equimolar stock with lipid mixture): 1.5 mN/m
Mean Minimum Surface Tension, relative peptide concentration 1/4 ([1]; 1/4 dilution of equimolar stock with lipid mixture): 4.5 mN/m
Mean Minimum Surface Tension, relative peptide concentration 1/8 ([1]; 1/8 dilution of equimolar stock with lipid mixture): 21.5 mN/m
Mean Minimum Surface Tension, relative peptide concentration Equimolar ([1]; equimolar to 0.5 mg/mL SP-B(53-78), 445 sq. cm trough): 1.5 mN/m
Mean Minimum Surface Tension, relative peptide concentration 2% ([1]; peptide 2% of solids (0.5 mg/ml), 445 sq. cm trough): 1.6 mN/m
Surface Tension Maximum [2]: 44.0 dynes/cm
Surface Tension Minimum [2]: 0.3 dynes/cm
Adsorption (equilibrium adsorption surface tension) [3]: 37.5 dynes/cm
Surface tension Maximum (maximum bubble size) [4]: 50.6 (1.7) dyne/cm
Surface tension Minimum (minimum bubble size) [4]: 4.7 (0.3) dyne/cm
